Measured values as given in publication PMC4022879.

B1: CHFI-2345 (domain or fragment)
chain: IPHNPLPSCRWYVTSRTCGIGPRLPWPELKRRCCRELADIPAYDRCTALSILMDGAIPPGPDAQLEGRLEDLPGCPREVQRGFAATLVTEAECNLATISGVAECPWILGGGTMPSK
B2: corn Hageman factor inhibitor (CHFI), control protein from Zea mays seeds (natural protein)
chain: SAGTSCVPGWAIPHNPLPSCRWYVTSRTCGIGPRLPWPELKRRCCRELADIPAYCRCTALSILMDGAIPPGPDAQLEGRLEDLPGCPREVQRGFAATLVTEAECNLATIS
B3: CHFI-1245, full-size CHFI with Cys29 substituted by Asp (natural protein)
chain: SAGTSCVPGWAIPHNPLPSCRWYVTSRTDGIGPRLPWPELKRRCCRELADIPAYCRCTALSILMDGAIPPGPDAQLEGRLEDLPGCPREVQRGFAATLVTEAECNLATIS
B4: CHFI-12345, recombinant full-size CHFI without any truncations (natural protein)
chain: SAGTSCVPGWAIPHNPLPSCRWYVTSRTCGIGPRLPWPELKRRCCRELADIPAYCRCTALSILMDGAIPPGPDAQLEGRLEDLPGCPREVQRGFAATLVTEAECNLATIS

Experiments:
[1] = target: activated coagulation factor XII (FXIIa); test: chromogenic enzyme inhibition assay; 1 nM FXIIa, 500 μM S2302, 37 °C, 110 mM Tris-HCl pH 8.0, 250 mM NaCl, 1% BSA; residual activity in triplicate at at least six inhibitor concentrations; Ki from a linear fit of 1/v against inhibitor concentration
[2] = target: bovine pancreatic trypsin (bovine); test: chromogenic enzyme inhibition assay; 1 nM trypsin, 500 μM S2765, 37 °C, 110 mM Tris-HCl pH 8.0, 250 mM NaCl, 1% BSA; residual activity in triplicate at at least six inhibitor concentrations; Ki from a linear fit of 1/v against inhibitor concentration
Sequence of bovine pancreatic trypsin (bovine) (P00760 24-246): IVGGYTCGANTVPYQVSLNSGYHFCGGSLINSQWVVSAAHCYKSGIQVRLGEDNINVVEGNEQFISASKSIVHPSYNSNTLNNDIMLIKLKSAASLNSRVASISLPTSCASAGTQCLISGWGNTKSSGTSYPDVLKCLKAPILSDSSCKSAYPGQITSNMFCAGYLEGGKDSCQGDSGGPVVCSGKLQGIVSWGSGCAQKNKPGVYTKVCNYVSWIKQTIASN

| Binder | Ki [1] | Ki [2] |
| --- | --- | --- |
| B1 | 1 nM | 2.9 nM |
| B2 | 1 nM | 2.1 nM |
| B3 | 50 nM | 250 nM |
| B4 | 1.1 nM | 1.3 nM |
